Laboratory results reported in paper PMC8512545, “Chitinase Chit62J4 Essential for Chitin Processing by Human Microbiome Bacterium Clostridium paraputrificum J4” (Molecules, 2021).

System: CC(=O)N[C@H]1[C@H](Oc2ccc([N+](=O)[O-])cc2)O[C@H](CO)[C@@H](O[C@@H]2O[C@H](CO)[C@@H](O)[C@H](O)[C@H]2NC(C)=O)[C@@H]1O
Experiment: purified protein
Assay type: biochemical, Clostridium paraputrificum
Conditions: 0.1 M citric acid-potassium phosphate pH 5.5, 37 °C

“rChit62J4cat (Clostridium paraputrificum)” gave a Km (no added compound) of 190 ± 20 µM and a kcat (no added compound) of 31.4 ± 0.8 s⁻¹.

“crChit62J4 (crude/isolated Chit62J4) (Clostridium paraputrificum)” was tested, and the Km (native enzyme) was 570 µM and the kcat (native enzyme) was 13.5 s⁻¹.

With rChit62J4 (Clostridium paraputrificum) the Km (no added compound) was 240 ± 20 µM and the kcat (no added compound) was 31.5 ± 0.9 s⁻¹.
